The values that follow come from PMC10173331.

Read-outs that look alike come from different tables or passages of the source.

In data set [1] the target is T1, clusterin (apolipoprotein J) (UniProt P10909 23-449). Nature of the data set: AuNP colorimetric aggregation assay.
The target of data set [2] is T1, clusterin (apolipoprotein J). Nature of the data set: AuNP colorimetric aggregation assay. This is another data set of the same source.

T1 sequence (P10909 23-449): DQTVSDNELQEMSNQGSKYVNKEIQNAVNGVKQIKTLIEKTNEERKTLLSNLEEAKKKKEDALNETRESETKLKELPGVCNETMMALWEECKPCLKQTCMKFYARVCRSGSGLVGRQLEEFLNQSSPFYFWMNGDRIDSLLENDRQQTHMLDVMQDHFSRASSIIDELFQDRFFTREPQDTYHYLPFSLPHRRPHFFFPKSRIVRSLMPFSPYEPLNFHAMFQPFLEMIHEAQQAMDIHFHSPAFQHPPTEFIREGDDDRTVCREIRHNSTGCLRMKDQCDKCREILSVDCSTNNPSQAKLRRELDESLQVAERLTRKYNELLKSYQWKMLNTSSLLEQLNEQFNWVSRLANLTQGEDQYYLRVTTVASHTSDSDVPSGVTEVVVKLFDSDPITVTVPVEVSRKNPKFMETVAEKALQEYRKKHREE

B1: clusterin 2 (ssDNA)
DNA: CTCCTCTGACTGTAACCACGTTAGGCGAGAACATGTCAGT
Regarding B1, the binding result in data set [1] is listed as “binds”.

B2: clusterin 1 (ssDNA)
DNA: CTCCTCTGACTGTAACCACGTTAGGCGAGAACATGTCAGTACGTCGACGTTCTACTTGCTGCATAGGTAGTCCAGAAGCC
Consider B2, for which the binding result in data set [2] was “binds”.
